According to article PMC12382473, “Retinoid X receptor γ interacts with peroxisome proliferator-activated receptor-γ to promote browning during adipose tissue differentiation” (Adipocyte, 2025):

Molecular target: T1, Flag-PPARγ, transfected in HEK293 cells (UniProt P37231 1-505)
T1 sequence (looked up): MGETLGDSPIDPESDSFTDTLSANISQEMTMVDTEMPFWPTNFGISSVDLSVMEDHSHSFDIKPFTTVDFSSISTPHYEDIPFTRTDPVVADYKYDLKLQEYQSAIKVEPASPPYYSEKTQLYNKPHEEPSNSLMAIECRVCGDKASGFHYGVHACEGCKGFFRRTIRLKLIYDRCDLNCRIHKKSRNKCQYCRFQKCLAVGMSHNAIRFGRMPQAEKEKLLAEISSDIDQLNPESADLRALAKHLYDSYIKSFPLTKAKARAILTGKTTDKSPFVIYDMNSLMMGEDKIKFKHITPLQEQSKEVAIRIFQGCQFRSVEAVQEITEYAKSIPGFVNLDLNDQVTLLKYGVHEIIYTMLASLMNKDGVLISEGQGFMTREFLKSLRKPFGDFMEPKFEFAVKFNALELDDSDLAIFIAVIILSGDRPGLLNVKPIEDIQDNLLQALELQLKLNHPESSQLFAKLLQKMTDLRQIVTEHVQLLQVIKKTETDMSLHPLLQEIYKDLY
Test: cell-based or functional assay

B1: Myc-RXRγ (retinoid X receptor γ), transfected in HEK293 cells (natural protein, UniProt P48443 1-463, looked up)
chain: MYGNYSHFMKFPAGYGGSPGHTGSTSMSPSAALSTGKPMDSHPSYTDTPVSAPRTLSAVGTPLNALGSPYRVITSAMGPPSGALAAPPGINLVAPPSSQLNVVNSVSSSEDIKPLPGLPGIGNMNYPSTSPGSLVKHICAICGDRSSGKHYGVYSCEGCKGFFKRTIRKDLIYTCRDNKDCLIDKRQRNRCQYCRYQKCLVMGMKREAVQEERQRSRERAESEAECATSGHEDMPVERILEAELAVEPKTESYGDMNMENSTNDPVTNICHAADKQLFTLVEWAKRIPHFSDLTLEDQVILLRAGWNELLIASFSHRSVSVQDGILLATGLHVHRSSAHSAGVGSIFDRVLTELVSKMKDMQMDKSELGCLRAIVLFNPDAKGLSNPSEVETLREKVYATLEAYTKQKYPEQPGRFAKLLLRLPALRSIGLKCLEHLFFFKLIGDTPIDTFLMEMLETPLQIT
luciferase activity of a PPRE reporter in HEK293 cells, RXRγ co-expressed with PPARγ (PPARγ alone 1.6-fold; RXRγ alone no increase): 2.1 fold
luciferase activity of a UCP1 promoter reporter in HEK293 cells, RXRγ co-expressed with PPARγ (PPARγ alone 1.5-fold; RXRγ alone no increase): 3.4 fold
